Like-named read-outs stand apart in the source and are kept apart here.
Experiment: Ratiometric fluorescence glucose titration of fluorescent conjugates
Format: binding
Set-up: key to Shape (fluorescence response to glucose) / Change (fluorescence response to glucose): m, monochromatic; d, dichromatic (i.e. spectral shape change); 0, no change
Details: tsGBP2 cysteine scan; for Kd: ratiometric fit at λ1 and λ2
From the text: Semi-synthetic FRSs can be engineered by site-specifically attaching thiol-reactive, environmentally sensitive fluorophores that respond to ligand-mediated conformational changes. Identification of FRS candidates that can be used for sensing applications comprises three steps: • 1. Cysteine scan. Mutant glucose-binding proteins containing single cysteines are constructed for site-specific attachment of thiol-reactive fluorophores. […] Candidate positions fall into three classes: endosteric, replacing a residue that contacts the ligand directly; peristeric, located at the rim of the binding site; allosteric (Marvin et al., 1997, Proc Natl Acad Sci USA, 94, 4366-71; Marvin, 1998, J Am Chem Soc, 120, 7-11), located outside the binding site at sites that undergo local structural changes in concert with the hinge-bending motion. • 2. Fluorophore screening. Thiol-reactive, environmentally sensitive fluorophores are attached to each cysteine mutant prepared in step 1. • 3. Evaluation of the glucose-mediated change of all the fluorescent conjugates prepared in step 2. Responses to ligand binding in which there is both a change in fluorescence emission intensity and spectral shape are essential for chemometric applications, because such changes enable ratiometric measurements. Changes in spectral shape typically are accompanied by a shift in the wavelength of the emission intensity maxima. Three classes of fluorescent responses are possible: • i. No response. • ii. Monochromatic response (emission intensity increases or decreases without a change in spectral shape) • iii.
Determination of temperature- and ligand-dependent fluorescence landscapes. […] Temperatures were advanced in 1K steps.
Determination of emission intensity spectra.
2 For a single glucose-binding site, the fractional saturation is given by […]

[1] = Acrylodan conjugate, read-out: Kd ^appKd
[2] = Acrylodan conjugate, read-out: Kd ^trueKd

Row | Molecule | Shape (fluorescence response to glucose) (Badan conjugate) | Shape (fluorescence response to glucose) (Acrylodan conjugate) | Kd [1] | Kd [2]
1 | H66C Badan: tsGBP2_C66 (SEQ ID NO: 24) Badan conjugate (conjugate, Badan conjugate; tsGBP2_C66 (66C substitution mutant with signal peptide replaced with M and a GGSHHHHHH at C-terminus)) MKLEIFSWWAGDEGPALEALIRLYKQKYPGVEVINATVTGGAGVNAKAVLKTRMLGGDPPDTFQVCAGQELIGTWVVADRMEDLTSLFRQEGWLQAFPKGLIDLLSYKGGIWSVPVNIHRSNVMWYIPAKLKEWGVTPPKTWAEFLATAQTLKRKGLEAPLALGENWTQQHLWESVALATLGADGWNNLWSGKLKFTDPKAVAVWETFGKVLDAANKDAAGLSWQQAVDRVVQGKAAFNIMGDWAAGYMSTTLKLKPGTDFAWTPSPGTSGIFMMLSDSFGLPKGAKNRQNAINWLKLVGSKEGQDTFNPLKGSIAARLDSDPAKYNAYGQSAMKDWKSNRIVGSLVHGAVAPESFMSQFGTVMEIFLQSRNPQAAANAAQAIANQVGLGRGGSHHHHHH | m |  |  | 
2 | S223C Badan: tsGBP2_C223 (SEQ ID NO: 27) Badan conjugate (conjugate, Badan conjugate; tsGBP2_C223 (223C substitution mutant with signal peptide replaced with M and a GGSHHHHHH at C-terminus)) MKLEIFSWWAGDEGPALEALIRLYKQKYPGVEVINATVTGGAGVNAKAVLKTRMLGGDPPDTFQVHAGQELIGTWVVADRMEDLTSLFRQEGWLQAFPKGLIDLLSYKGGIWSVPVNIHRSNVMWYIPAKLKEWGVTPPKTWAEFLATAQTLKRKGLEAPLALGENWTQQHLWESVALATLGADGWNNLWSGKLKFTDPKAVAVWETFGKVLDAANKDAAGLCWQQAVDRVVQGKAAFNIMGDWAAGYMSTTLKLKPGTDFAWTPSPGTSGIFMMLSDSFGLPKGAKNRQNAINWLKLVGSKEGQDTFNPLKGSIAARLDSDPAKYNAYGQSAMKDWKSNRIVGSLVHGAVAPESFMSQFGTVMEIFLQSRNPQAAANAAQAIANQVGLGRGGSHHHHHH | m |  |  | 
3 | W167C Acrylodan: tsGBP2_C167 (SEQ ID NO: 26) Acrylodan conjugate (conjugate, Acrylodan conjugate; tsGBP2_C167 (167C substitution mutant with signal peptide replaced with M and a GGSHHHHHH at C-terminus)) MKLEIFSWWAGDEGPALEALIRLYKQKYPGVEVINATVTGGAGVNAKAVLKTRMLGGDPPDTFQVHAGQELIGTWVVADRMEDLTSLFRQEGWLQAFPKGLIDLLSYKGGIWSVPVNIHRSNVMWYIPAKLKEWGVTPPKTWAEFLATAQTLKRKGLEAPLALGENCTQQHLWESVALATLGADGWNNLWSGKLKFTDPKAVAVWETFGKVLDAANKDAAGLSWQQAVDRVVQGKAAFNIMGDWAAGYMSTTLKLKPGTDFAWTPSPGTSGIFMMLSDSFGLPKGAKNRQNAINWLKLVGSKEGQDTFNPLKGSIAARLDSDPAKYNAYGQSAMKDWKSNRIVGSLVHGAVAPESFMSQFGTVMEIFLQSRNPQAAANAAQAIANQVGLGRGGSHHHHHH |  | d | 20 µM | 20 µM
4 | H119C Badan: tsGBP2_C119 (SEQ ID NO: 25) Badan conjugate (conjugate, Badan conjugate; tsGBP2_C119 (119C substitution mutant with signal peptide replaced with M and a GGSHHHHHH at C-terminus)) MKLEIFSWWAGDEGPALEALIRLYKQKYPGVEVINATVTGGAGVNAKAVLKTRMLGGDPPDTFQVHAGQELIGTWVVADRMEDLTSLFRQEGWLQAFPKGLIDLLSYKGGIWSVPVNICRSNVMWYIPAKLKEWGVTPPKTWAEFLATAQTLKRKGLEAPLALGENWTQQHLWESVALATLGADGWNNLWSGKLKFTDPKAVAVWETFGKVLDAANKDAAGLSWQQAVDRVVQGKAAFNIMGDWAAGYMSTTLKLKPGTDFAWTPSPGTSGIFMMLSDSFGLPKGAKNRQNAINWLKLVGSKEGQDTFNPLKGSIAARLDSDPAKYNAYGQSAMKDWKSNRIVGSLVHGAVAPESFMSQFGTVMEIFLQSRNPQAAANAAQAIANQVGLGRGGSHHHHHH | m |  |  | 
5 | S223C Acrylodan: tsGBP2_C223 (SEQ ID NO: 27) Acrylodan conjugate (conjugate, Acrylodan conjugate; tsGBP2_C223 (223C substitution mutant with signal peptide replaced with M and a GGSHHHHHH at C-terminus)) MKLEIFSWWAGDEGPALEALIRLYKQKYPGVEVINATVTGGAGVNAKAVLKTRMLGGDPPDTFQVHAGQELIGTWVVADRMEDLTSLFRQEGWLQAFPKGLIDLLSYKGGIWSVPVNIHRSNVMWYIPAKLKEWGVTPPKTWAEFLATAQTLKRKGLEAPLALGENWTQQHLWESVALATLGADGWNNLWSGKLKFTDPKAVAVWETFGKVLDAANKDAAGLCWQQAVDRVVQGKAAFNIMGDWAAGYMSTTLKLKPGTDFAWTPSPGTSGIFMMLSDSFGLPKGAKNRQNAINWLKLVGSKEGQDTFNPLKGSIAARLDSDPAKYNAYGQSAMKDWKSNRIVGSLVHGAVAPESFMSQFGTVMEIFLQSRNPQAAANAAQAIANQVGLGRGGSHHHHHH |  | 0 |  | 
6 | H119C Acrylodan: tsGBP2_C119 (SEQ ID NO: 25) Acrylodan conjugate (conjugate, Acrylodan conjugate; tsGBP2_C119 (119C substitution mutant with signal peptide replaced with M and a GGSHHHHHH at C-terminus)) MKLEIFSWWAGDEGPALEALIRLYKQKYPGVEVINATVTGGAGVNAKAVLKTRMLGGDPPDTFQVHAGQELIGTWVVADRMEDLTSLFRQEGWLQAFPKGLIDLLSYKGGIWSVPVNICRSNVMWYIPAKLKEWGVTPPKTWAEFLATAQTLKRKGLEAPLALGENWTQQHLWESVALATLGADGWNNLWSGKLKFTDPKAVAVWETFGKVLDAANKDAAGLSWQQAVDRVVQGKAAFNIMGDWAAGYMSTTLKLKPGTDFAWTPSPGTSGIFMMLSDSFGLPKGAKNRQNAINWLKLVGSKEGQDTFNPLKGSIAARLDSDPAKYNAYGQSAMKDWKSNRIVGSLVHGAVAPESFMSQFGTVMEIFLQSRNPQAAANAAQAIANQVGLGRGGSHHHHHH |  | m | 20 µM | 20 µM
7 | W167C Badan: tsGBP2_C167 (SEQ ID NO: 26) Badan conjugate (conjugate, Badan conjugate; tsGBP2_C167 (167C substitution mutant with signal peptide replaced with M and a GGSHHHHHH at C-terminus)) MKLEIFSWWAGDEGPALEALIRLYKQKYPGVEVINATVTGGAGVNAKAVLKTRMLGGDPPDTFQVHAGQELIGTWVVADRMEDLTSLFRQEGWLQAFPKGLIDLLSYKGGIWSVPVNIHRSNVMWYIPAKLKEWGVTPPKTWAEFLATAQTLKRKGLEAPLALGENCTQQHLWESVALATLGADGWNNLWSGKLKFTDPKAVAVWETFGKVLDAANKDAAGLSWQQAVDRVVQGKAAFNIMGDWAAGYMSTTLKLKPGTDFAWTPSPGTSGIFMMLSDSFGLPKGAKNRQNAINWLKLVGSKEGQDTFNPLKGSIAARLDSDPAKYNAYGQSAMKDWKSNRIVGSLVHGAVAPESFMSQFGTVMEIFLQSRNPQAAANAAQAIANQVGLGRGGSHHHHHH | m |  |  | 

From US11402384B2 (Duke University, priority 2015, dated 2022)
